Data: the Immune Epitope Database (IEDB)

Legend:
HLA-C*14:02 = test: IEDB peptide-MHC binding, purified MHC/direct/fluorescence; filed as Kd, often an IC50 or EC50 that approximates it; ≥ and ≤ were set here for values at or beyond the usual limits of such assays
HLA-B*07:02 [1] = test: IEDB peptide-MHC binding, purified MHC/competitive/fluorescence; filed as Kd, often an IC50 or EC50 that approximates it; ≥ and ≤ were set here for values at or beyond the usual limits of such assays; conditions: source organism: Influenza A virus (A/Memphis/1/1978(H1N1))
HLA-C*15:02 = test: IEDB peptide-MHC binding, purified MHC/direct/fluorescence; filed as Kd, often an IC50 or EC50 that approximates it; ≥ and ≤ were set here for values at or beyond the usual limits of such assays; conditions: source organism: Homo sapiens
HLA-A*01:01 [2] = test: IEDB peptide-MHC binding, purified MHC/competitive/fluorescence; filed as Kd, often an IC50 or EC50 that approximates it; ≥ and ≤ were set here for values at or beyond the usual limits of such assays; conditions: source organism: Homo sapiens
HLA-A*29:02 [3] = test: as above; conditions: source organism: Homo sapiens
HLA-C*07:02 = test: IEDB peptide-MHC binding, purified MHC/direct/fluorescence; filed as Kd, often an IC50 or EC50 that approximates it; ≥ and ≤ were set here for values at or beyond the usual limits of such assays
HLA-C*12:03 = test: as above; conditions: source organism: Vaccinia virus
HLA-A*02:01 [4] = test: IEDB peptide-MHC binding, purified MHC/competitive/fluorescence; filed as Kd, often an IC50 or EC50 that approximates it; ≥ and ≤ were set here for values at or beyond the usual limits of such assays; conditions: source organism: Vaccinia virus
HLA-B*08:01 [5] = test: IEDB peptide-MHC binding, purified MHC/competitive/radioactivity; filed as Kd, often an IC50 or EC50 that approximates it; ≥ and ≤ were set here for values at or beyond the usual limits of such assays; conditions: source organism: Vaccinia virus WR
HLA-A*02:03 = test: IEDB peptide-MHC binding, purified MHC/direct/fluorescence; filed as Kd, often an IC50 or EC50 that approximates it; ≥ and ≤ were set here for values at or beyond the usual limits of such assays
HLA-A*02:11 = test: as above
HLA-A*02:12 = test: as above
HLA-A*02:19 = test: as above
HLA-A*03:01 [6] = test: as above
HLA-A*24:03 = test: as above; conditions: source organism: Yersinia pestis CA88-4125
HLA-A*26:01 = test: as above
HLA-B*15:01 = test: as above
HLA-B*18:01 = test: as above
HLA-B*27:03 = test: as above
HLA-B*39:01 = test: as above; conditions: source organism: Yersinia pestis CA88-4125
HLA-B*46:01 [7] = test: as above
HLA-B*51:01 = test: as above
HLA-B*57:01 = test: as above
HLA-A*01:01 [8] = test: as above
HLA-A*26:02 = test: as above
HLA-A*80:01 = test: as above; conditions: source organism: West Nile virus
HLA-A*02:01 [9] = test: as above
HLA-A*02:16 = test: as above; conditions: source organism: Vibrio vulnificus YJ016
HLA-A*29:02 [10] = test: as above; conditions: source organism: Vibrio vulnificus YJ016
HLA-A*69:01 = test: as above
HLA-A*03:01 [11] = test: IEDB peptide-MHC binding, purified MHC/competitive/fluorescence; filed as Kd, often an IC50 or EC50 that approximates it; ≥ and ≤ were set here for values at or beyond the usual limits of such assays; conditions: source organism: Robiginitalea biformata HTCC2501
HLA-A*11:01 [12] = test: as above; conditions: source organism: Robiginitalea biformata HTCC2501
HLA-A*31:01 = test: as above; conditions: source organism: Robiginitalea biformata HTCC2501
HLA-A*11:01 [13] = test: IEDB peptide-MHC binding, purified MHC/direct/fluorescence; filed as Kd, often an IC50 or EC50 that approximates it; ≥ and ≤ were set here for values at or beyond the usual limits of such assays; conditions: source organism: Pseudomonas putida
HLA-A*30:01 = test: as above; conditions: source organism: Pseudomonas putida
HLA-B*07:02 [14] = test: as above; conditions: source organism: Pseudomonas putida
HLA-B*08:01 [15] = test: as above; conditions: source organism: Pseudomonas putida
HLA-B*27:05 = test: as above; conditions: source organism: Pseudomonas putida
HLA-B*40:01 = test: as above; conditions: source organism: Pseudomonas putida
HLA-B*58:01 = test: as above; conditions: source organism: Pseudomonas putida
HLA-B*73:01 = test: IEDB peptide-MHC binding, purified MHC/competitive/fluorescence; filed as Kd, often an IC50 or EC50 that approximates it; ≥ and ≤ were set here for values at or beyond the usual limits of such assays
HLA-C*03:03 = test: IEDB peptide-MHC binding, purified MHC/direct/fluorescence; filed as Kd, often an IC50 or EC50 that approximates it; ≥ and ≤ were set here for values at or beyond the usual limits of such assays; conditions: source organism: Mycobacterium tuberculosis C
HLA-B*46:01 [16] = test: IEDB peptide-MHC binding, purified MHC/competitive/fluorescence; filed as Kd, often an IC50 or EC50 that approximates it; ≥ and ≤ were set here for values at or beyond the usual limits of such assays; conditions: source organism: Mycobacterium tuberculosis C
[17] = source organism: Yersinia pestis CA88-4125
[18] = source organism: West Nile virus
[19] = source organism: Vibrio vulnificus YJ016
[20] = source organism: Pseudomonas putida

ATPENAAAL gave a Kd (HLA-C*14:02; source organism: Mycobacterium tuberculosis variant bovis BCG str. Pasteur 1173P2) of 0.177 µM.

DPLVVAASI was tested, and the Kd (HLA-B*07:02 [1]) was ≥ 20 µM.

With HMMAVTLFY the Kd (HLA-C*14:02; source organism: Homo sapiens) was 0.516 µM, the Kd (HLA-C*15:02) was 4.72 µM and the Kd (HLA-A*01:01 [2]) was 0.0574 µM. It also gave a Kd (HLA-A*29:02 [3]) of 0.0002 µM.

Sequence LLYAHINAL has a Kd (HLA-C*07:02; source organism: Vaccinia virus) of 0.216 µM, a Kd (HLA-C*12:03) of 0.222 µM and a Kd (HLA-A*02:01 [4]) of 0.0016 µM. The Kd (HLA-B*08:01 [5]) was 0.00137 µM.

LPEAYQWHI was tested, and the Kd (HLA-A*02:03; [17]) was ≥ 20 µM, the Kd (HLA-A*02:11; [17]) was ≥ 20 µM and the Kd (HLA-A*02:12; [17]) was ≥ 20 µM. For the same sequence, the Kd (HLA-A*02:19; [17]) was ≥ 20 µM, the Kd (HLA-A*03:01 [6]; [17]) was ≥ 20 µM and the Kd (HLA-A*24:03) was ≥ 20 µM. The Kd (HLA-A*26:01; [17]) was ≥ 20 µM, the Kd (HLA-B*15:01; [17]) was ≥ 20 µM and the Kd (HLA-B*18:01; [17]) was ≥ 20 µM. The Kd (HLA-B*27:03; [17]) was ≥ 20 µM, the Kd (HLA-B*39:01) was ≥ 20 µM and the Kd (HLA-B*46:01 [7]; [17]) was ≥ 20 µM. The Kd (HLA-B*51:01; [17]) was 0.484 µM and the Kd (HLA-B*57:01; [17]) was ≥ 20 µM.

LTKEEFTRY gave a Kd (HLA-A*01:01 [8]; [18]) of 1.15 µM, a Kd (HLA-A*26:01; [18]) of 1.08 µM and a Kd (HLA-A*26:02; [18]) of 0.28 µM. The Kd (HLA-A*80:01) was 0.544 µM.

In the case of MKYVWPPIM, the Kd (HLA-A*02:01 [9]; [19]) is reported as ≥ 20 µM, the Kd (HLA-A*02:03; [19]) is reported as ≥ 20 µM and the Kd (HLA-A*02:11; [19]) is reported as ≥ 20 µM. The Kd (HLA-A*02:12; [19]) was ≥ 20 µM, the Kd (HLA-A*02:16) was ≥ 20 µM and the Kd (HLA-A*02:19; [19]) was ≥ 20 µM. For the same sequence, the Kd (HLA-A*03:01 [6]; [19]) was ≥ 20 µM, the Kd (HLA-A*26:01; [19]) was ≥ 20 µM and the Kd (HLA-A*29:02 [10]) was ≥ 20 µM. The Kd (HLA-A*69:01; [19]) was ≥ 20 µM, the Kd (HLA-B*15:01; [19]) was ≥ 20 µM and the Kd (HLA-B*18:01; [19]) was ≥ 20 µM. For the same sequence, the Kd (HLA-B*27:03; [19]) was ≥ 20 µM, the Kd (HLA-B*46:01 [7]; [19]) was ≥ 20 µM and the Kd (HLA-B*51:01; [19]) was ≥ 20 µM. For the same sequence, the Kd (HLA-B*57:01; [19]) was ≥ 20 µM.

With PLAKGLFHK the Kd (HLA-A*03:01 [11]) was 6.78 µM, the Kd (HLA-A*11:01 [12]) was 2.38 µM and the Kd (HLA-A*31:01) was ≥ 20 µM.

In the case of RVWRGEQGK, the Kd (HLA-A*01:01 [8]; [20]) is reported as ≥ 20 µM, the Kd (HLA-A*02:01 [9]; [20]) is reported as ≥ 20 µM and the Kd (HLA-A*03:01 [6]; [20]) is reported as 0.246 µM. For the same sequence, the Kd (HLA-A*11:01 [13]) was 0.0548 µM, the Kd (HLA-A*26:01; [20]) was ≥ 20 µM and the Kd (HLA-A*30:01) was 0.045 µM. The Kd (HLA-A*69:01; [20]) was ≥ 20 µM, the Kd (HLA-B*07:02 [14]) was ≥ 20 µM and the Kd (HLA-B*08:01 [15]) was ≥ 20 µM. For the same sequence, the Kd (HLA-B*15:01; [20]) was ≥ 20 µM, the Kd (HLA-B*27:05) was 7.53 µM and the Kd (HLA-B*40:01) was ≥ 20 µM. For the same sequence, the Kd (HLA-B*58:01) was ≥ 20 µM and the Kd (HLA-B*73:01; [20]) was ≥ 20 µM.

VVAANRSAF was tested, and the Kd (HLA-C*14:02; source organism: Mycobacterium tuberculosis CDC1551) was 0.103 µM.

YRAKVKPWA was tested, and the Kd (HLA-B*73:01; source organism: Francisella tularensis subsp. tularensis FSC198) was 4.5 µM.

YVFYDGPPF showed a Kd (HLA-A*26:02; source organism: Mycobacterium tuberculosis str. Haarlem) of 0.011 µM, a Kd (HLA-C*03:03) of 0.01 µM and a Kd (HLA-C*07:02; source organism: Mycobacterium tuberculosis C) of 0.021 µM. For the same sequence, the Kd (HLA-B*46:01 [16]) was 0.125 µM.
